Data as given in the supplement of paper PMC5998384.

System: HeLa Kyoto
Assay: thermal stability score vs G1/S (z-score of summed log2 fold changes over temperatures); higher = more thermally stable than in G1/S
[1] = cell cycle stage: early G1 (4.5 h after nocodazole release)
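Also: synchronized HeLa Kyoto cells, proteins quantified by TMT10plex mass spectrometry, three biological replicates, mitosis taken 0.5 h after nocodazole release, G1/S directly after double thymidine block.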

Chain of PDK1 (chain, as listed by the source): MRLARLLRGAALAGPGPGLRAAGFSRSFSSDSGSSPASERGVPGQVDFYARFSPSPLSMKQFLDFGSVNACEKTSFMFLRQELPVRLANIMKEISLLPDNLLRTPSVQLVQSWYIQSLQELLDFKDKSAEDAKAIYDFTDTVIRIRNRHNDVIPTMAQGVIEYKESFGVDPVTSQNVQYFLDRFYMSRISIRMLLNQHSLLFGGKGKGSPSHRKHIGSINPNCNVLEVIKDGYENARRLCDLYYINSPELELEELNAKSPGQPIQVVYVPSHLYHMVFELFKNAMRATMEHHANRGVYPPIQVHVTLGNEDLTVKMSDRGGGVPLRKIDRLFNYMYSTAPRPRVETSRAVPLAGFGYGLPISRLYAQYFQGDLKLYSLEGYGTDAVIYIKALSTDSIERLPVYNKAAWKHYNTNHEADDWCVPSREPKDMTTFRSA

Substance	thermal stability score [1]	thermal stability score (cell cycle stage: mitosis)
MLIKEYHILLPMSLDEYQVAQLYMIQKKSREESSGEGSGVEILANRPYTDGPGGSGQYTHKVYHVGSHIPGWFRALLPKAALQVEEESWNAYPYTRTRYTCPFVEKFSIEIETYYLPDGGQQPNVFNLSGAERRQRILDTIDIVRDAVAPGEYKAEEDPRLYHSVKTGRGPLSDDWARTAAQTGPLMCAYKLCKVEFRYWGMQAKIEQFIHDVGLRRVMLRAHRQAWCWQDEWTELSMADIRALEEETARMLAQRMAKCNTGSEGSEAQPPGKPSTEARSAASNTGTPDGPEAPPGPDASPDASFGKQWSSSSRSSYSSQHGGAVSPQSLSEWRMQNIARDSENSSEEEFFDAHEGFSDSEEVFPKEMTKWNSNDFIDAFASPVEAEGTPEPGAEAAKGIEDGAQAPRDSEGLDGAGELGAEACAVHALFLILHSGNILDSGPGDANSKQADVQTLSSAFEAVTRIHFPEALGHVALRLVPCPPICAAAYALVSNLSPYSHDGDSLSRSQDHIPLAALPLLATSSSRYQGAVATVIARTNQAYSAFLRSPEGAGFCGQVALIGDGVGGILGFDALCHSANAGTGSRGSSRRGSMNNELLSPEFGPVRDPLADGVEGLGRGSPEPSALPPQRIPSDMASPEPEGSQNSLQAAPATTSSWEPRRASTAFCPPAASSEAPDGPSSTARLDFKVSGFFLFGSPLGLVLALRKTVMPALEAAQMRPACEQIYNLFHAADPCASRLEPLLAPKFQAIAPLTVPRYQKFPLGDGSSLLLADTLQTHSSLFLEELEMLVPSTPTSTSGAFWKGSELATDPPAQPAAPSTTSEVVKILERWWGTKRIDYSLYCPEALTAFPTVTLPHLFHASYWESADVVAFILRQVIEKERPQLAECEEPSIYSPAFPREKWQRKRTQVKIRNVTSNHRASDTVVCEGRPQVLSGRFMYGPLDVVTLTGEKVDVYIMTQPLSGKWIHFGTEVTNSSGRLTFPVPPERALGIGVYPVRMVVRGDHTYAECCLTVVARGTEAVVFSIDGSFTASVSIMGSDPKVRAGAVDVVRHWQDSGYLIVYVTGRPDMQKHRVVAWLSQHNFPHGVVSFCDGLTHDPLRQKAMFLQSLVQEVELNIVAGYGSPKDVAVYAALGLSPSQTYIVGRAVRKLQAQCQFLSDGYVAHLGQLEAGSHSHASSGPPRAALGKSSYGVAAPVDFLRKQSQLLRSRGPSQAEREGPGTPPTTLARGKARSISLKLDSEE [PITPNM1]	0.586	0.463
MSGFENLNTDFYQTSYSIDDQSQQSYDYGGSGGPYSKQYAGYDYSQQGRFVPPDMMQPQQPYTGQIYQPTQAYTPASPQPFYGNNFEDEPPLLEELGINFDHIWQKTLTVLHPLKVADGSIMNETDLAGPMVFCLAFGATLLLAGKIQFGYVYGISAIGCLGMFCLLNLMSMTGVSFGCVASVLGYCLLPMILLSSFAVIFSLQGMVGIILTAGIIGWCSFSASKIFISALAMEGQQLLVAYPCALLYGVFALISVF [YIPF5]	-0.124	-0.361
MSLVPATNYIYTPLNQLKGGTIVNVYGVVKFFKPPYLSKGTDYCSVVTIVDQTNVKLTCLLFSGNYEALPIIYKNGDIVRFHRLKIQVYKKETQGITSSGFASLTFEGTLGAPIIPRTSSKYFNFTTEDHKMVEALRVWASTHMSPSWTLLKLCDVQPMQYFDLTCQLLGKAEVDGASFLLKVWDGTRTPFPSWRVLIQDLVLEGDLSHIHRLQNLTIDILVYDNHVHVARSLKVGSFLRIYSLHTKLQSMNSENQTMLSLEFHLHGGTSYGRGIRVLPESNSDVDQLKKDLESANLTANQHSDVICQSEPDDSFPSSGSVSLYEVERCQQLSATILTDHQYLERTPLCAILKQKAPQQYRIRAKLRSYKPRRLFQSVKLHCPKCHLLQEVPHEGDLDIIFQDGATKTPDVKLQNTSLYDSKIWTTKNQKGRKVAVHFVKNNGILPLSNECLLLIEGGTLSEICKLSNKFNSVIPVRSGHEDLELLDLSAPFLIQGTIHHYGCKQCSSLRSIQNLNSLVDKTSWIPSSVAEALGIVPLQYVFVMTFTLDDGTGVLEAYLMDSDKFFQIPASEVLMDDDLQKSVDMIMDMFCPPGIKIDAYPWLECFIKSYNVTNGTDNQICYQIFDTTVAEDVI [POT1]	0.878	1.25
MSSGNAKIGHPAPNFKATAVMPDGQFKDISLSDYKGKYVVFFFYPLDFTFVCPTEIIAFSDRAEEFKKLNCQVIGASVDSHFCHLAWVNTPKKQGGLGPMNIPLVSDPKRTIAQDYGVLKADEGISFRGLFIIDDKGILRQITVNDLPVGRSVDETLRLVQAFQFTDKHGEVCPAGWKPGSDTIKPDVQKSKEYFSKQK [PRDX1]	-0.285	-1.31
MSSSLRPGPSRWRRAASIVLAAGWSRPETATPPSRPPPAEGFRLLLLQRSPHQGFMPGAHVFSGGVLDAADRSADWLGLFAPHHGPPRFGLGPAPFSRTAFPSLPDTDDHKTDNTGTLPEDVAFRICAVREAFEEAGVLLLRPRTSPPGPAPGPGLALEPPPGLASWRDRVRQDPRHFLRLCAHLDCTPDIWALHNWSAWLTPFLRGTTRRFDTAFFLCCLREPPPVYPDLAEVVGYQWSSPSEATESFLSKEIWLPPPQFYEVRRLANFASLSDLHKFCLGRALEGLERWLPIILLTADGMVHLLPGDELYLEDSDFLENLMSTEKKTEEIMKEGKQFHRIVTYHRHLYDIHVTVQPKYKHVYPKNSVVRKSHL [NUDT19]	-1.25	-1.33
MWSGPPQPDQGLPPPLAAVPVPWKSTDPCQGHRESPGALVETSAGEEAQGQEGPAAAQLDVLRLRSSSMEIREKGSEFLKEELHRAQKELKLKDEECERLSKVREQLEQELEELTASLFEEAHKMVREANMKQAASEKQLKEARGKIDMLQAEVTALKTLVITSTPASPNRELHPQLLSPTKAGPRKGHSRHKSTSSTLCPAVCPAAGHTLTPDREGKEVDTILFAEFQAWRESPTLDKTCPFLERVYREDVGPCLDFTMQELSVLVRAAVEDNTLTIEPVASQTLPTVKVAEVDCSSTNTCALSGLTRTCRHRIRLGDSKSHYYISPSSRARITAVCNFFTYIRYIQQGLVRQDAEPMFWEIMRLRKEMSLAKLGFFPQEA [RAB3IL1]	-0.0366	0.539
PDK1	-0.202	0.796
